PMC4466232

Tests used:
[1] = biological target: MVM capsid protein VP2 (stably expressed in human fibroblasts, HF-VPs) (Minute Virus of Mice, prototype strain (MVMp)); experiment: cross-linking; clarified cell homogenates in HNEM buffer (50 mM Hepes pH 8.0, 150 mM NaCl, 2 mM MgCl2, 1 mM EDTA) cross-linked with 10 mM dimethyl suberimidate (DMS), 10 min at 20°C; 5% SDS-PAGE and Western blot with the α-VPs antibody; MF-VPs quiescent by serum starvation (G0) or 8 h after serum addition (S); HF-VPs at hours after release of density arrest (G1)
[2] = biological target: MVM capsid protein VP2 (stably expressed in mouse fibroblasts, MF-VPs) (Minute Virus of Mice, prototype strain (MVMp)); experiment: as above

Substance	stoichiometry N [1]	stoichiometry N [2]
MVM capsid protein VP2 (stably expressed in human fibroblasts, HF-VPs) (natural protein)	3	–
MVM capsid protein VP2 (stably expressed in mouse fibroblasts, MF-VPs) (natural protein)	–	3
